Source: patent US20140056903A1 (Regeneron, published 2014)

T1: cynomolgus GFRα3 on HEK293/MfGFRα3/MfRet/SRE-Luc cells (cynomolgus, UniProt O60609 1-400 (human entry), limits assumed)
T1 chain: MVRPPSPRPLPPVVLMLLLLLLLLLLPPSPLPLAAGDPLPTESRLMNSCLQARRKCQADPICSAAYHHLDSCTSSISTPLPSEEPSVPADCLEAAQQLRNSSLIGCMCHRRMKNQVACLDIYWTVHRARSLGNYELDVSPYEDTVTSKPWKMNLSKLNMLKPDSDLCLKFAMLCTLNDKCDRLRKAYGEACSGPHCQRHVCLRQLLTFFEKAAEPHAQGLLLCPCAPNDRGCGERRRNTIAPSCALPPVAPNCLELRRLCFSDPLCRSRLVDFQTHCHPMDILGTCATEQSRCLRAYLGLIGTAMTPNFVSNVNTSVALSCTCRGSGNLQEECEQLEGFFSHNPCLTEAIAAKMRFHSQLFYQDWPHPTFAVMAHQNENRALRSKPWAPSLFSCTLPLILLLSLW

T2: human GFRα3 on HEK293/hGFRα3/hRET/SRE-luc cells (human, UniProt O60609 32-382)
T2 sequence: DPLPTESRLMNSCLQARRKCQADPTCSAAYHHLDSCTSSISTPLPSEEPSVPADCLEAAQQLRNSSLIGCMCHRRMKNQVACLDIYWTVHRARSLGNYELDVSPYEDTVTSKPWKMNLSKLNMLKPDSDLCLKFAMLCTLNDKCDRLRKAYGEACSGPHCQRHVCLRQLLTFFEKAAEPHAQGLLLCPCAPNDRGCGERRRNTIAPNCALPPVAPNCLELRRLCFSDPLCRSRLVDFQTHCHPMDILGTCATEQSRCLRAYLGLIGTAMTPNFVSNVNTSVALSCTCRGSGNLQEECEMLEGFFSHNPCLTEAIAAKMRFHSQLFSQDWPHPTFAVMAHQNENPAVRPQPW

B1: recombinant human ARTEMIN protein with a C-terminal myc-myc-hexahistidine tag (ligand)
chain: AGGPGSRARAAGARGCRLRSQLVPVRALGLGHRSDELVRFRFCSGSCRRARSPHDLSLASLLGAGALRPPPGSRPVSQPCCRPTRYEAVSFMDVNSTWRTVDRLSATACGCLGEQKLISEEDLGGEQKLISEEDLHHHHHH
B2: H4H2234N (antibody, human IgG4, V domains shown)
VH: EVQLLESGGGLVQSGGSLRLSCAASGFSFNNYAMSWVRQAPGKGLEWVSFISGSGGSTYYADSVKGRFTISRDNSKNTLYLQMNSLRVEDTAVFYCAKDRYNYGTFFDYWGQGTLVTVSS
VL: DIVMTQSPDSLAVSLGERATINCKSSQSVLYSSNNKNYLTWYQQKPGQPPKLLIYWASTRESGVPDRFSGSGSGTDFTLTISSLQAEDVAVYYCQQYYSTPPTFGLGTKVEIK
notes: human IgG4 Fc (H4H)
B3: H4H2207N (antibody, human IgG4, V domains shown)
VH: EVQLVESGGGLVQPGRSLRLSCAASGFTFNDYAMHWVRQAPGKGLEWVSGISWNSGNIGYADSVKGRFTISRDNAKNSLYLQMNSLRAEDTALYFCARDTRMATRPFDYWGQGTLVTVSS
VL: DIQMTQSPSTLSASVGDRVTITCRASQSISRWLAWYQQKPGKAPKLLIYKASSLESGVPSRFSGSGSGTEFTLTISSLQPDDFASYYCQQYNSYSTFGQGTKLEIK
notes: human IgG4 Fc (H4H)

Columns and labels:
[1] = biological target: T1, cynomolgus GFRα3 on …; assay: cell-based or functional assay
[2] = biological target: T2, human GFRα3 on …; assay: cell-based or functional assay
[3] = biological target: T3, human GFRα3 expressed with a C-terminal hFc tag (human); assay: blocking ELISA 1, hGFRα3-hFc to coated hARTEMIN-mmH
T3 construct: also called hGFRα3-hFc
Protocol: (§1) A constant amount of human GFRα3 fused with a C-terminal human Fc tag (hGFRα3-hFc; SEQ ID:371) at 120 pM was pre-mixed with varying amounts of antibodies, ranging from 0 to ˜10 nM in serial dilutions, followed by an 1 hour incubation at room temperature (RT) to allow antibody-hGFRα3-hFc binding to reach equilibrium. The equilibrated sample solutions were then transferred to the hARTEMIN-mmH-coated plate. […] Absorbance was recorded at 450 nm on a Victor X5 plate reader (Perkin Elmer) to determine the amount of free hGFRα3-hFc in the pre-equilibrated hGFRα3-hFc-antibody solutions that was able to bind to the plate coated with hARTEMIN-mmH. IC₅₀ values, defined as the concentration of antibody required to reduce the signal from a constant concentration of hGFRα3-hFc by 50%, were calculated from the data using Prism software from GraphPad. The absorbance measured at the constant amount of 120 pM hGFRα3-hFc in the absence of anti-GFRα3 antibody is defined as 0% blocking and the absorbance with no added hGFRα3-hFc is defined as 100% blocking. The observed absorbance in the wells containing the highest antibody concentration was used to calculate the maximum blocking percent shown in the table.

[4] = biological target: T4, human GFRα3 expressed with a C-terminal myc-myc-hexahistidine tag (human, UniProt O60609 32-374, biotinylated (sites not given) in ELISA format 2 and in the Octet cross-competition; not in SPR); assay: blocking ELISA 2, biotin-hGFRα3-mmH to coated hARTEMIN-mmH + hRET-10His
T4 construct: also called hGFRα3-mmh; hGFRα3-mmH
Protocol: as §1, with “The” for “A constant amount of human GFRα3 fused with a C-terminal human Fc tag (hGFRα3-hFc; SEQ ID:371) at 120 pM was pre-mixed with varying amounts of antibodies, ranging from 0 to ˜10 nM in serial dilutions, followed by an 1 hour incubation at room temperature (RT) to allow antibody-hGFRα3-hFc binding to reach equilibrium. The”
In the second ELISA format, the plates, samples and data were processed similarly as for the first format except both hARTEMIN-mmH and human RET with a C-terminal 10 histidine tag (hRET-10His; R&D Systems, #1168-CR/CF) were coated for the blocking ELISA experiment. The 96-well microtiter plates were coated with a mixture of 1.2 ug/ml hARTEMIN-mmH and 6.9 ug/ml hRET-10His proteins in PBS overnight at 4° C. and then blocked with a solution of 0.5% (w/v) BSA. A constant amount of biotinylated human GFRα3 with a C-terminal myc-myc-hexahistidine tag (biotin-hGFRα3-mmH; SEQ ID:370) at 1 nM was pre-mixed with varied amounts of anti-GFRα3 antibodies, ranging from 0 to ˜100 nM in serial dilutions, followed by a 1 hour incubation at RT to allow antibody-biotin-hGFRα3-mmH binding to reach equilibrium. The equilibrated samples were then transferred to the coated plate. After 1 hour of binding, the plate was washed, then the bound biotin-hGFRα3-mmH was detected using HRP conjugated streptavidin (Pierce, #N200), and colorimetric signals were developed using TMB HRP substrates.

Binder	EC50 of SRE-dependent luciferase activity in HEK293/mfGFRα3/mfRet/SRE-LUC cells [1] [nM]	IC50 (SRE-luc, HEK293/hGFRα3/hRET cells, 100 pM hARTEMIN-mmH) [2] [nM]	% max blocking [3] [%]	IC50 [3] [nM]	% max blocking [4] [%]	IC50 [4] [nM]
B1	0.07	–	–	–	–	–
B2	–	2.3	70	0.0829	97	3.42
B3	–	2.4	–	–	85	7.3
